From patent US20150203577A1 (Chugai, published 2015)

T1: mouse FcγRIII extracellular domain, C-terminally His-tagged (mouse, UniProt P08508 31-215)
T1 construct: the whole entry is named; also called mFcγRIII; mFcgRIII
T1 chain: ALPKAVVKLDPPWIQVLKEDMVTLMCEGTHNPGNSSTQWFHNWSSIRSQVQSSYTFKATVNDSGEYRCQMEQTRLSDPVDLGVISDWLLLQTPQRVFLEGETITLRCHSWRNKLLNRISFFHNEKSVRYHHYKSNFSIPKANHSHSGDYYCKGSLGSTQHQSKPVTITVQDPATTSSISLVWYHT

T2: mouse FcγRII extracellular domain, C-terminally His-tagged (mouse, UniProt P08101 30-210)
T2 construct: the whole entry is named; also called mFcγRII; mFcgRII
T2 sequence: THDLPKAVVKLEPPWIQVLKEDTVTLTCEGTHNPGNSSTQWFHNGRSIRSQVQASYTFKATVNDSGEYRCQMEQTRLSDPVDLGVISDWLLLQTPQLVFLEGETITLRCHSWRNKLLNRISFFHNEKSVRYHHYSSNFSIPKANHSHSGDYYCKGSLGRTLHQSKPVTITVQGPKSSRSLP


What was measured:
[1] = target: T1, mouse FcγRIII extracellular domain, …; test: SPR Biacore T200, KD ratio
Source text: (§1) The antibody H chain variable region used was the variable region H237 (SEQ ID NO: 1) of the H chain VH3-IgG1 of the anti-IL-6 receptor antibody Fv4-IgG1 described in WO2009/125825. The antibody L chain commonly used was the L chain MRAL-k0 (SEQ ID NO: 2) of the anti-IL-6 receptor antibody tocilizumab. H237-MB476/MRAL-k0 and H237-MB515/MRAL-k0 were used as templates to introduce new alterations. These variants were expressed and purified by the method of Reference Example 1 and evaluated for their binding to mFcγRII and mFcγRIII by the method of Reference Example 2 using Biacore T200.
(§2) Each altered antibody was analyzed for its interaction with each Fcγ receptor prepared above using Biacore T100 (GE Healthcare Japan Corp.), Biacore T200 (GE Healthcare Japan Corp.), Biacore A100, or Biacore 4000. The running buffer used was HBS-EP+ (GE Healthcare Japan Corp.). The assay temperature was set to 25° C. The sensor chips used were chips prepared by immobilizing Protein L (ACTIGEN or BioVision) onto Series S Sensor Chip CM5 (GE Healthcare Japan Corp.) or Series S Sensor Chip CM4 (GE Healthcare Japan Corp.) by the amine coupling method.
(§3) In order to calculate the KD value of each altered antibody for FcγR, kinetic analysis was conducted according to the following method: first, the antibody of interest was captured onto any of these chips and allowed to interact with mFcγR diluted with a running buffer. For the obtained sensorgram, the assay results were globally fit into the 1:1 Langmuir binding model using Biacore Evaluation Software to calculate an association rate constant ka (L/mol/s) and a dissociation rate constant kd (1/s). From these values, the dissociation constant KD (mol/L) was calculated.

[2] = target: T2, mouse FcγRII extracellular domain, …; test: SPR Biacore T200, KD ratio
Source text: as §1, §2, §3

[3] = target: T1, mouse FcγRIII extracellular domain, …; test: SPR Biacore T200, KD ratio, template MB476
Source text: as §1, §2, §3

[4] = target: T2, mouse FcγRII extracellular domain, …; test: SPR Biacore T200, KD ratio, template MB476
Source text: as §1, §2, §3

| Binder | relative mFcγRIII-binding activity (mIgG1 = 1) [1] [fold] | relative mFcγRII-binding activity (mIgG1 = 1) [2] [fold] | relative mFcγRIII-binding activity (template = 1) [3] [fold] | relative mFcγRII-binding activity (template = 1) [4] [fold] | relative mFcγRII-binding activity (H237-mIgG1/MRAL-k0 = 1) [2] [fold] | relative mFcγRII-binding activity (template H237-MB476/MRAL-k0 = 1) [2] [fold] |
| --- | --- | --- | --- | --- | --- | --- |
| H237-MB476/MRAL-k0 (antibody, mouse IgG1, kappa, Template; copies: 2 + 2) heavy: QVQLQESGPGLVKPSETLSLTCAVSGHSISHDHAWSWVRQPPGEGLEWIGFISYSGITNYNPSLQGRVTISRDNSKNTLYLQMNSLRAEDTAVYYCARSLARTTAMDYWGEGTLVTVSSAKTTPPSVYPLAPGSAAQTNSMVTLGCLVKGYFPEPVTVTWNSGSLSSGVHTFPAVLQSDLYTLSSSVTVPSSTWPSETVTCNVAHPASSTKVDKKIVPRDCGCKPCICQPNEVEEVFIFPPKPKDVLTITLTPKVTCVVVDISKDDPEVQFSWFVDDVEVHTAQTQPREEQFNSTFRSVSELPIMHQDWLNGKEFKCRVNSAAFPAPIEKTISKTKGRPKAPQVYTIPPPKEQMAKDKVSLTCMITDFFPEDITVEWQWNGQPAENYKNTQPIMDTDGSYFVYSKLNVQKSNWEAGNTFTCSVLHEGLHNHHTEKSLSHSPGK light: not shown | 2.6 | 261 | 1 | 1 | – | – |
| H237-MB531/MRAL-k0 (antibody, mouse IgG1, kappa, copies: 2 + 2) heavy: QVQLQESGPGLVKPSETLSLTCAVSGHSISHDHAWSWVRQPPGEGLEWIGFISYSGITNYNPSLQGRVTISRDNSKNTLYLQMNSLRAEDTAVYYCARSLARTTAMDYWGEGTLVTVSSAKTTPPSVYPLAPGSAAQTNSMVTLGCLVKGYFPEPVTVTWNSGSLSSGVHTFPAVLQSDLYTLSSSVTVPSSTWPSETVTCNVAHPASSTKVDKKIVPRDCGCKPCICQPNEVEEVFIFPPKPKDVLTITLTPKVTCVVVDISKDDPEVQFSWFVDDVEVHTAQTQPREEQFNSTFRSVSELPIMHQDWLNGKEFKCRVDSAAFPAPIERTISKTKGRPKAPQVYTIPPPKEQMAKDKVSLTCMITDFFPEDITVEWQWNGQPAENYKNTQPIMDTDGSYFVYSKLNVQKSNWEAGNTFTCSVLHEGLHNHHTEKSLSHSPGK light: not shown | 3.3 | 229 | 1.25 | 0.88 | – | – |
| H237-MB529/MRAL-k0 (antibody, mouse IgG1, kappa, copies: 2 + 2) heavy: QVQLQESGPGLVKPSETLSLTCAVSGHSISHDHAWSWVRQPPGEGLEWIGFISYSGITNYNPSLQGRVTISRDNSKNTLYLQMNSLRAEDTAVYYCARSLARTTAMDYWGEGTLVTVSSAKTTPPSVYPLAPGSAAQTNSMVTLGCLVKGYFPEPVTVTWNSGSLSSGVHTFPAVLQSDLYTLSSSVTVPSSTWPSETVTCNVAHPASSTKVDKKIVPRDCGCKPCICQPNEVEEVFIFPPKPKDVLTITLTPKVTCVVVDISKDDPEVQFSWFVDDVEVHTAQTQPREEQFNLTFRSVSELPIMHQDWLNGKEFKCRVNSAAFPAPIERTISKTKGRPKAPQVYTIPPPKEQMAKDKVSLTCMITDFFPEDITVEWQWNGQPAENYKNTQPIMDTDGSYFVYSKLNVQKSNWEAGNTFTCSVLHEGLHNHHTEKSLSHSPGK light: not shown | 5.9 | 282 | 2.24 | 1.08 | – | – |
| H237-MB526/MRAL-k0 (antibody, mouse IgG1, kappa, copies: 2 + 2) heavy: QVQLQESGPGLVKPSETLSLTCAVSGHSISHDHAWSWVRQPPGEGLEWIGFISYSGITNYNPSLQGRVTISRDNSKNTLYLQMNSLRAEDTAVYYCARSLARTTAMDYWGEGTLVTVSSAKTTPPSVYPLAPGSAAQTNSMVTLGCLVKGYFPEPVTVTWNSGSLSSGVHTFPAVLQSDLYTLSSSVTVPSSTWPSETVTCNVAHPASSTKVDKKIVPRDCGCKPCICQPNEVEEVFIFPPKPKDVLTITLTPKVTCVVVDISKDDPEVQFSWFVDDVEVHTAQTQPREEQFNLTFRSVSELPIMHQDWLNGKEFKCRVNSAAFPAPIEKTISKTKGRPKAPQVYTIPPPKEQMAKDKVSLTCMITDFFPEDITVEWQWNGQPAENYKNTQPIMDTDGSYFVYSKLNVQKSNWEAGNTFTCSVLHEGLHNHHTEKSLSHSPGK light: not shown | 8.5 | 232 | 3.23 | 0.89 | – | – |
| H237-MB527/MRAL-k0 (antibody, mouse IgG1, kappa, also called MG527; copies: 2 + 2) heavy: QVQLQESGPGLVKPSETLSLTCAVSGHSISHDHAWSWVRQPPGEGLEWIGFISYSGITNYNPSLQGRVTISRDNSKNTLYLQMNSLRAEDTAVYYCARSLARTTAMDYWGEGTLVTVSSAKTTPPSVYPLAPGSAAQTNSMVTLGCLVKGYFPEPVTVTWNSGSLSSGVHTFPAVLQSDLYTLSSSVTVPSSTWPSETVTCNVAHPASSTKVDKKIVPRDCGCKPCICQPNEVEEVFIFPPKPKDVLTITLTPKVTCVVVDISKDDPEVQFSWFVDDVEVHTAQTQPREEQFNLTFRSVSELPIMHQDWLNGKEFKCRVDSAAFPAPIEKTISKTKGRPKAPQVYTIPPPKEQMAKDKVSLTCMITDFFPEDITVEWQWNGQPAENYKNTQPIMDTDGSYFVYSKLNVQKSNWEAGNTFTCSVLHEGLHNHHTEKSLSHSPGK light: not shown | 5.5 | 273 | 2.09 | 1.05 | – | – |
| H237-MB530/MRAL-k0 (antibody, mouse IgG1, kappa, copies: 2 + 2) heavy: QVQLQESGPGLVKPSETLSLTCAVSGHSISHDHAWSWVRQPPGEGLEWIGFISYSGITNYNPSLQGRVTISRDNSKNTLYLQMNSLRAEDTAVYYCARSLARTTAMDYWGEGTLVTVSSAKTTPPSVYPLAPGSAAQTNSMVTLGCLVKGYFPEPVTVTWNSGSLSSGVHTFPAVLQSDLYTLSSSVTVPSSTWPSETVTCNVAHPASSTKVDKKIVPRDCGCKPCICQPNEVEEVFIFPPKPKDVLTITLTPKVTCVVVDISKDDPEVQFSWFVDDVEVHTAQTQPREEQFNSTFRSVSELPIMHQDWLNGKEFKCRVDSDAFPAPIEKTISKTKGRPKAPQVYTIPPPKEQMAKDKVSLTCMITDFFPEDITVEWQWNGQPAENYKNTQPIMDTDGSYFVYSKLNVQKSNWEAGNTFTCSVLHEGLHNHHTEKSLSHSPGK light: not shown | 8 | 623 | 3.04 | 2.38 | ≥ 350 | ≥ 1.4 |
| H237-MB528/MRAL-k0 (antibody, mouse IgG1, kappa, copies: 2 + 2) heavy: QVQLQESGPGLVKPSETLSLTCAVSGHSISHDHAWSWVRQPPGEGLEWIGFISYSGITNYNPSLQGRVTISRDNSKNTLYLQMNSLRAEDTAVYYCARSLARTTAMDYWGEGTLVTVSSAKTTPPSVYPLAPGSAAQTNSMVTLGCLVKGYFPEPVTVTWNSGSLSSGVHTFPAVLQSDLYTLSSSVTVPSSTWPSETVTCNVAHPASSTKVDKKIVPRDCGCKPCICQPNEVEEVFIFPPKPKDVLTITLTPKVTCVVVDISKDDPEVQFSWFVDDVEVHTAQTQPREEQFNLTFRSVSELPIMHQDWLNGKEFKCRVNSDAFPAPIEKTISKTKGRPKAPQVYTIPPPKEQMAKDKVSLTCMITDFFPEDITVEWQWNGQPAENYKNTQPIMDTDGSYFVYSKLNVQKSNWEAGNTFTCSVLHEGLHNHHTEKSLSHSPGK light: not shown | 14.6 | 375 | 5.52 | 1.44 | – | – |
| H237-MB532/MRAL-k0 (antibody, mouse IgG1, kappa, copies: 2 + 2) heavy: QVQLQESGPGLVKPSETLSLTCAVSGHSISHDHAWSWVRQPPGEGLEWIGFISYSGITNYNPSLQGRVTISRDNSKNTLYLQMNSLRAEDTAVYYCARSLARTTAMDYWGEGTLVTVSSAKTTPPSVYPLAPGSAAQTNSMVTLGCLVKGYFPEPVTVTWNSGSLSSGVHTFPAVLQSDLYTLSSSVTVPSSTWPSETVTCNVAHPASSTKVDKKIVPRDCGCKPCICQPNEVEEVFIFPPKPKDVLTITLTPKVTCVVVDISKDDPEVQFSWFVDDVEVHTAQTQPREEQFNSTFRSVSELPIMHQDWLNGKEFKCRVNSDAFPAPIERTISKTKGRPKAPQVYTIPPPKEQMAKDKVSLTCMITDFFPEDITVEWQWNGQPAENYKNTQPIMDTDGSYFVYSKLNVQKSNWEAGNTFTCSVLHEGLHNHHTEKSLSHSPGK light: not shown | 6.2 | 329 | 2.35 | 1.26 | – | – |
